8 molecules from patent US20180155451A1 (published 2018) can be followed below.

Experiment [1] deals with T1, FcγRIIa R (FcγRIIa, allotype R: Arg at position 131) extracellular domain with C-terminal His tag (human, UniProt P12318 34-217).
T1 construct: extracellular domain; also called FcgRIIa R; 2aR; not shown: His tag at the C terminus
T1 sequence (looked up): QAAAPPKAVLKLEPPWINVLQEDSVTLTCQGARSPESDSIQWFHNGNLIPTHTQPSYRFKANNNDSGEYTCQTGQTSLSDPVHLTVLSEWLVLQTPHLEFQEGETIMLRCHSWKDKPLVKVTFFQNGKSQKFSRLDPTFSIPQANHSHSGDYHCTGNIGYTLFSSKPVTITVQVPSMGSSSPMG
In words: ratio He/Con_2aR : He/Con_2b (FcgRIIa R over FcgRIIb), SPR Biacore. Background: Surface plasmon resonance follows binding to a sensor surface in real time, without labels.

The target in experiment [2] is T2, FcγRIIb extracellular domain with C-terminal His tag (human, UniProt P31994 43-217).
T2 construct: extracellular domain; also called FcgRIIb; 2b; not shown: His tag at the C terminus
T2 sequence (looked up): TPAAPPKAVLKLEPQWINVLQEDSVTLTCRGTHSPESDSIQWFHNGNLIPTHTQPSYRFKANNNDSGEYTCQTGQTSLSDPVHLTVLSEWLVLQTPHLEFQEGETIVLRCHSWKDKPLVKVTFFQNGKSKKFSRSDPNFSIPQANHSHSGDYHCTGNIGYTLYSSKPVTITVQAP
In words: SPR Biacore, antibody captured, FcgR analyte; vs HeCon Ab GpH7-A5/GpH7-B3/GpL16-k0 = 100.

The target of experiment [3] is T1, FcγRIIa R (FcγRIIa, allotype R: Arg at …). The experiment is described as above.
For the next experiment, the target named is T3, FcγRIIb (human, UniProt P31994 43-217).
T3 construct: extracellular domain; also called FcgRIIb; 2b; not shown: His tag attached to the C terminus
T3 sequence (looked up): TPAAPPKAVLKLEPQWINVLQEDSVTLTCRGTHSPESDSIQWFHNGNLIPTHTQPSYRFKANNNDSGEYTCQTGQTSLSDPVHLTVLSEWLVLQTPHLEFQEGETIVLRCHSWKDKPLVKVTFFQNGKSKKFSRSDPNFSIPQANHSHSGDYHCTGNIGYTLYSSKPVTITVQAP
The experiment can be described thus: SPR (Biacore), antibody captured, FcγR as analyte; binding relative to GpH7-A5/GpH7-B3/GpL16-k0 = 100.

Experiment [4] deals with T4, FcγRIIa H (human, UniProt P12318 34-217).
T4 construct: extracellular domain; also called FcgRIIa H; FcγRIIa type H; not shown: His tag attached to the C terminus
T4 sequence (looked up): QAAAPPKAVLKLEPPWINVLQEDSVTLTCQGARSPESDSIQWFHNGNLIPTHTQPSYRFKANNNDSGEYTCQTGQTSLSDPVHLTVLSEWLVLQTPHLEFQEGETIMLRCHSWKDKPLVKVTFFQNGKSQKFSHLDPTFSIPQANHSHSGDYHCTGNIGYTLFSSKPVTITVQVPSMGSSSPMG
Described as above.

The target of experiment [5] is T4, FcγRIIa H. The experiment can be described thus: ratio of He/Con_2aH to He/Con_2b (relative SPR binding to FcγRIIa H over FcγRIIb).

B1: GpH7-A5/GpH7-B3 variant L235_18N/GpL16-k0 (antibody, human IgG1, kappa)
heavy 1: not shown
heavy 2: not shown
light: DIVMTQSPLSLPVTPGEPASISCQASESLVHSNRNTYLHWYLQKPGQSPQLLIYKVSNRFSGVPDRFSGSGSGTDFTLKISRVEAEDVGVYYCSQNTHVPPTFGQGTKVEIERTVAAPSVFIFPPSDEQLKSGTASVVCLLNNFYPREAKVQWKVDNALQSGNSQESVTEQDSKDSTYSLSSTLTLSKADYEKHKVYACEVTHQGLSSPVTKSFNRGEC
notes: He Ab: alteration in the GpH7-B3 H chain only; also called He Ab
On to B1, for which the “He_2aR/2b (IIaR/IIb)” value in experiment [1] was 1.21. In experiment [2], the He/Con_2b came to 54.9 control = 100. In experiment [3], this molecule returned a He/Con_2aR of 66.5 control = 100.

B2: GpH7-A5/GpH7-B3 variant G236_03V/GpL16-k0 (antibody, human IgG1, kappa)
heavy 1: not shown
heavy 2: not shown
light: DIVMTQSPLSLPVTPGEPASISCQASESLVHSNRNTYLHWYLQKPGQSPQLLIYKVSNRFSGVPDRFSGSGSGTDFTLKISRVEAEDVGVYYCSQNTHVPPTFGQGTKVEIERTVAAPSVFIFPPSDEQLKSGTASVVCLLNNFYPREAKVQWKVDNALQSGNSQESVTEQDSKDSTYSLSSTLTLSKADYEKHKVYACEVTHQGLSSPVTKSFNRGEC
notes: Heterodimerized IgG1, mutation in the GpH7-B3 chain only; also called He Ab
In the experiment with FcγRIIb, B2 came in with a He/Con_2b of 35.3 control = 100. Moreover, the He/Con_2aH in the experiment with FcγRIIa H [4] was 119 control = 100. The “He_2aH/2b (IIaH/IIb)” value with FcγRIIa H [5] was determined as 3.39.

B3: GpH7-A5/GpH7-B3 variant L235_12R/GpL16-k0 (antibody, human IgG1, kappa)
heavy 1: not shown
heavy 2: not shown
light: DIVMTQSPLSLPVTPGEPASISCQASESLVHSNRNTYLHWYLQKPGQSPQLLIYKVSNRFSGVPDRFSGSGSGTDFTLKISRVEAEDVGVYYCSQNTHVPPTFGQGTKVEIERTVAAPSVFIFPPSDEQLKSGTASVVCLLNNFYPREAKVQWKVDNALQSGNSQESVTEQDSKDSTYSLSSTLTLSKADYEKHKVYACEVTHQGLSSPVTKSFNRGEC
notes: as for B2
Regarding B3, the He/Con_2aH with FcγRIIa H [4] is 30.3 control = 100. Moreover, the “He_2aH/2b (IIaH/IIb)” value with FcγRIIa H [5] turned out to be 3.16.

B4: GpH7-A5/GpH7-B3 variant D265_03V/GpL16-k0 (antibody, human IgG1, kappa)
heavy 1: not shown
heavy 2: not shown
light: DIVMTQSPLSLPVTPGEPASISCQASESLVHSNRNTYLHWYLQKPGQSPQLLIYKVSNRFSGVPDRFSGSGSGTDFTLKISRVEAEDVGVYYCSQNTHVPPTFGQGTKVEIERTVAAPSVFIFPPSDEQLKSGTASVVCLLNNFYPREAKVQWKVDNALQSGNSQESVTEQDSKDSTYSLSSTLTLSKADYEKHKVYACEVTHQGLSSPVTKSFNRGEC
notes: as for B2
B4 came in with a He/Con_2b with FcγRIIb of 3.2 control = 100. Also, the He/Con_2aH with FcγRIIa H [4] is 4.6 control = 100. Also, the “He_2aH/2b (IIaH/IIb)” value with FcγRIIa H [5] amounted to 1.42.

B5: GpH7-A5/GpH7-B3 variant G236_04F/GpL16-k0 (antibody, human IgG1, kappa)
heavy 1: not shown
heavy 2: not shown
light: DIVMTQSPLSLPVTPGEPASISCQASESLVHSNRNTYLHWYLQKPGQSPQLLIYKVSNRFSGVPDRFSGSGSGTDFTLKISRVEAEDVGVYYCSQNTHVPPTFGQGTKVEIERTVAAPSVFIFPPSDEQLKSGTASVVCLLNNFYPREAKVQWKVDNALQSGNSQESVTEQDSKDSTYSLSSTLTLSKADYEKHKVYACEVTHQGLSSPVTKSFNRGEC
notes: as for B2
B5 displayed a He/Con_2b with FcγRIIb of 39.3 control = 100. Besides, the He/Con_2aH in the experiment with FcγRIIa H [4] worked out at 118 control = 100. The “He_2aH/2b (IIaH/IIb)” value with FcγRIIa H [5] turned out to be 3.

B6: GpH7-A5/GpH7-B3 variant G236_07I/GpL16-k0 (antibody, human IgG1, kappa)
heavy 1: not shown
heavy 2: not shown
light: DIVMTQSPLSLPVTPGEPASISCQASESLVHSNRNTYLHWYLQKPGQSPQLLIYKVSNRFSGVPDRFSGSGSGTDFTLKISRVEAEDVGVYYCSQNTHVPPTFGQGTKVEIERTVAAPSVFIFPPSDEQLKSGTASVVCLLNNFYPREAKVQWKVDNALQSGNSQESVTEQDSKDSTYSLSSTLTLSKADYEKHKVYACEVTHQGLSSPVTKSFNRGEC
notes: as for B2
In the experiment with FcγRIIb, B6 registered a He/Con_2b of 31 control = 100. The molecule further registered a He/Con_2aH in the experiment with FcγRIIa H [4] of 115 control = 100. In addition, the “He_2aH/2b (IIaH/IIb)” value with FcγRIIa H [5] was determined as 3.72.

B7: GpH7-A5/GpH7-B3 variant L235_16H/GpL16-k0 (antibody, human IgG1, kappa)
heavy 1: not shown
heavy 2: not shown
light: DIVMTQSPLSLPVTPGEPASISCQASESLVHSNRNTYLHWYLQKPGQSPQLLIYKVSNRFSGVPDRFSGSGSGTDFTLKISRVEAEDVGVYYCSQNTHVPPTFGQGTKVEIERTVAAPSVFIFPPSDEQLKSGTASVVCLLNNFYPREAKVQWKVDNALQSGNSQESVTEQDSKDSTYSLSSTLTLSKADYEKHKVYACEVTHQGLSSPVTKSFNRGEC
notes: as for B1
With B7, in experiment [1], the “He_2aR/2b (IIaR/IIb)” value turned out to be 1.23. For the same molecule, the He/Con_2b in experiment [2] worked out at 76.9 control = 100. The same molecule yielded a He/Con_2aR in experiment [3] of 94.8 control = 100.

B8: GpH7-A5/GpH7-B3 variant D265_02A/GpL16-k0 (antibody, human IgG1, kappa)
heavy 1: not shown
heavy 2: not shown
light: DIVMTQSPLSLPVTPGEPASISCQASESLVHSNRNTYLHWYLQKPGQSPQLLIYKVSNRFSGVPDRFSGSGSGTDFTLKISRVEAEDVGVYYCSQNTHVPPTFGQGTKVEIERTVAAPSVFIFPPSDEQLKSGTASVVCLLNNFYPREAKVQWKVDNALQSGNSQESVTEQDSKDSTYSLSSTLTLSKADYEKHKVYACEVTHQGLSSPVTKSFNRGEC
notes: as for B2
Molecule B8 gave a He/Con_2b with FcγRIIb of 19.9 control = 100. In the experiment with FcγRIIa H [4], the He/Con_2aH came to 31.3 control = 100. Moreover, the “He_2aH/2b (IIaH/IIb)” value in the experiment with FcγRIIa H [5] came to 1.58.
